Measured values from patent US20030212001A1 (THERATECHNOLOGIES, published 2003).

Target: R-14 protein (as present in the eye of newborn pigs)
Assay: cell-based or functional assay

Row | IC50, dose response on basal intraocular pressure (IOP) of piglet [nM] | Binder
1 | 342 | IFDSTECW [peptide 1405]
2 | 86.4 | HIICSPLR [peptide 1402]
